# Laboratory results as given in patent publication US20240287172A1 (SCIRHOM, published 2024).
# Assays:
# [1] = target: T1, hiR2-FL-K536-T7 (deletion of K536) (human, UniProt Q6PJF5 1-856); assay: FACS on MEF-DKO cells
# T1 construct: single amino acid deletion
# T1 sequence: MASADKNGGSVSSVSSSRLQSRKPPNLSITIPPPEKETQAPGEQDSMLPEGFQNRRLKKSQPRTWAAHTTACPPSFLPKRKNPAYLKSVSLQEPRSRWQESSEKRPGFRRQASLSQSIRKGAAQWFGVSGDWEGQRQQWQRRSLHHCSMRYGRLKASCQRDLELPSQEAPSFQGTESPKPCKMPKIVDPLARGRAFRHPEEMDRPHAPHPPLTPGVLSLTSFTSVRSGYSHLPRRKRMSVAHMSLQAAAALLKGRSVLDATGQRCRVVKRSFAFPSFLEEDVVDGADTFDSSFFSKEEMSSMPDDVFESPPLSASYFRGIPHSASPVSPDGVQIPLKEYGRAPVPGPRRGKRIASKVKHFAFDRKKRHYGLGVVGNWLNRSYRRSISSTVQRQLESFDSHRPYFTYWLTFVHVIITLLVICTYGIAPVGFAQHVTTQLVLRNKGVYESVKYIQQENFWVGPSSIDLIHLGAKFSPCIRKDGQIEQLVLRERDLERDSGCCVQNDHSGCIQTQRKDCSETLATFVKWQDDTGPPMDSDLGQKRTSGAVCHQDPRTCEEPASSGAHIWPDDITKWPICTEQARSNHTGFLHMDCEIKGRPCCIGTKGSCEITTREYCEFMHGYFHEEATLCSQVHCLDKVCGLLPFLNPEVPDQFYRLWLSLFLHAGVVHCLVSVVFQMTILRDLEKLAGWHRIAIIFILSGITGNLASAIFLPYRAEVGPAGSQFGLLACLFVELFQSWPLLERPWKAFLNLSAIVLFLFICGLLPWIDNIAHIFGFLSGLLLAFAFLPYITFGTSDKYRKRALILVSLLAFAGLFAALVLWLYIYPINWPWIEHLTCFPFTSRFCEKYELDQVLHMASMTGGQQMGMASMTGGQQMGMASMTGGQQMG
# [2] = target: T2, hiR2-FL-M534-T7 (deletion of M534) (human, UniProt Q6PJF5 1-856); assay: FACS on MEF-DKO cells
# T2 construct: single amino acid deletion
# T2 sequence: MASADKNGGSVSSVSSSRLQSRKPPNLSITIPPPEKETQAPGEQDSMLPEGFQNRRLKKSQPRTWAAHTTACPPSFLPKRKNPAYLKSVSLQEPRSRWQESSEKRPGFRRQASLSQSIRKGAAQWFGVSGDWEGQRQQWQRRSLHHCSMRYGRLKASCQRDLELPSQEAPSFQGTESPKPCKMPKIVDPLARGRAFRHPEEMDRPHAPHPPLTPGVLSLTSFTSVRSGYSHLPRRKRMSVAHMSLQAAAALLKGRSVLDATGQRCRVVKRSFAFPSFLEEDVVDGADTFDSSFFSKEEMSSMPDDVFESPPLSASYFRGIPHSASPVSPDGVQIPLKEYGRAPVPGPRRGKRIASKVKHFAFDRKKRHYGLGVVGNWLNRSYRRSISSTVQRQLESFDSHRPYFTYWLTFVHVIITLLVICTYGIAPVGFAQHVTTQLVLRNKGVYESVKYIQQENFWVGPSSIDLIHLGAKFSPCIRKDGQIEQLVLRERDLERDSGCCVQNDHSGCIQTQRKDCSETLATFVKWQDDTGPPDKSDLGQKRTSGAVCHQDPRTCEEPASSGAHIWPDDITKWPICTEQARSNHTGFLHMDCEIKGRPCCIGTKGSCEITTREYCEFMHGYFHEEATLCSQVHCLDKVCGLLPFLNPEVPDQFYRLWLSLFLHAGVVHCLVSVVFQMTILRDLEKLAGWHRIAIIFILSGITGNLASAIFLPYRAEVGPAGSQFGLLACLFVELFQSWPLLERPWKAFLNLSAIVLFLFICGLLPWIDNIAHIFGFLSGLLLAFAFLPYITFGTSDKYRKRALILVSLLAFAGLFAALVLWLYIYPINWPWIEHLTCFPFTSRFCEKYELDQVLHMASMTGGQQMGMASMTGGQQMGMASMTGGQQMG
# [3] = target: T3, hiR1-FL-WT-T7 (human, UniProt Q96CC6 1-855); assay: FACS, MEF-DKO cells, 3 µg/ml
# T3 construct: on MEF-DKO cells
# T3 sequence: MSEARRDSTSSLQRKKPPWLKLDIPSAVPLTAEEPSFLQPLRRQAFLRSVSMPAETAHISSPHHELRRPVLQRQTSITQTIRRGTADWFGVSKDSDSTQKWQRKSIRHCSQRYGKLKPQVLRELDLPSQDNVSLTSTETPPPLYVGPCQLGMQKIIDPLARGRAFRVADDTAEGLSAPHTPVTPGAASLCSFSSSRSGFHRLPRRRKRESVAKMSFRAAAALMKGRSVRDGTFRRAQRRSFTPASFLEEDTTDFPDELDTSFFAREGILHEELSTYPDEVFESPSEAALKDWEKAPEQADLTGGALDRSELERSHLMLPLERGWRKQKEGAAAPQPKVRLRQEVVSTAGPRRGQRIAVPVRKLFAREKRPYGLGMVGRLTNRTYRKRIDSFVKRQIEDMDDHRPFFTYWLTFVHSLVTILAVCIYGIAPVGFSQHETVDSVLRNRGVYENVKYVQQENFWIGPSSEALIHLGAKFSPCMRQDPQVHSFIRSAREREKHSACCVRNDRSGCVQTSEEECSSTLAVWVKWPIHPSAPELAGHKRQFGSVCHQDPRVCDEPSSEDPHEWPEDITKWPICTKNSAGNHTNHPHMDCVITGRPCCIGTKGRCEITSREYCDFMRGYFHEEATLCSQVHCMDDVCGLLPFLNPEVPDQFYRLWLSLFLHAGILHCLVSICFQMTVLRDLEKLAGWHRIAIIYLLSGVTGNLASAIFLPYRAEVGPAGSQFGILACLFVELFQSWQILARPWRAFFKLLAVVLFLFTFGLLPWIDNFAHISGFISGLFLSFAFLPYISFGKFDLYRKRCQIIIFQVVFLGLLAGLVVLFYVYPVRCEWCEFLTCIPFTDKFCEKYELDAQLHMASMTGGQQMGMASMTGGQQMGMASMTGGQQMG
Binder,binding result [1],binding result [2],loss of binding vs wild type [3] [%]
"antibody 16 (antibody, V domains shown, mouse IgG, kappa light chain; also called clone #16; purified antibody 16) VH: QVTLKESGPGILQPSQTLSLTCSFSGFSLSTFALGVGWIRQPSGRGLEWLAHIWWDDDKYYNPALKSRLTISKDTSKNHVFLKIANVDTADTATYYCARITTYYYGMDYWGQGTSVTVSS VL: DIVLSQSPATLSVTPGDSVSLFCRASQSIGNHLHWYQQESHASPRLLIKYASQSISGIPSRFSGSGSGTDFTLSINSVETEDFGMYFCQQSYNWPLTFGAGTKLELK",no binding (tested: 3 µg/ml),no binding (tested: 3 µg/ml),≥ 95
"antibody 3 (antibody, V domains shown, mouse IgG, kappa light chain; also called clone #3; purified antibody 3) VH: QVTLKESGPGILQPSQTLSLTCSFSGFSLTTFAMGIGWVRQPSGKGLEWLAHIWWDGEKYNNPVLKSRLTISKDTSKNQVFLRIANVDTPDTATYYCARISSIYYIIDNWGQGTSVTVSS VL: DIVLTQSPATLSVTPGHSVSLSCRASQSISNNLHWYQKKSHESPRLLIKYVSQSISGIPSRFSGSGSGTDFTLSINSVETEDFGMYFCQQSYNWPLTFGAGTKLELK",no binding (tested: 3 µg/ml),no binding (tested: 3 µg/ml),≥ 95
"antibody 34 (antibody, V domains shown, mouse IgG, kappa light chain; also called clone #34; purified antibody 34) VH: QVTLKESGPGILQPSQTLSLTCSFSGFSLSTFSLGVGWIRQSSGKGLEWLAHIWWDDEKYYNPALKSRLTISKDTSKNQVFLKIANVDAADTATYYCARAYYSKSYYALDYWGQGTSVTVSS VL: DIQMTQSPSSLSASLGERVSLTCRASQEISGYLSWLQQKPDGTIKRLIYAASTLDSGVPKRFSGSRSGSDYSLAISSLESEDFADYYCLQYANFPFTFGSGTKLEIK",no binding (tested: 3 µg/ml),no binding (tested: 3 µg/ml),≥ 95
"antibody 48 (antibody, V domains shown, mouse IgG, kappa light chain; also called clone #48; purified antibody 48) VH: QVQLQQSGTELVRPGTSVKVSCKASGYAFTNYLIEWVKQRPGQGLEWIGVINPGSGFTKYNEKFKGKATLTADKSSSTVYMHLSSLTSEDSAVYFCARGLYRAMDYWGQGTSVTVSS VL: DIQMTQSPASQSASLGESVTITCLASQTIATWLAWYQQKPGKSPQLLIYGATTLADGVPSRFSGGGSGTKFSFKISSLQAEDFVSYYCQQLYSTPYTFGGGTKLEIK",–,–,≥ 60
"antibody 50 (antibody, V domains shown, mouse IgG, kappa light chain; also called clone #50; purified antibody 50) VH: QVQLQQSGAELVRPGASVKVSCKASGYAFSNYLIEWVKQRPGQGLEWIGVINPGSGFTKYNEKFKGKATLTADKSSSTAYMQLSSLTSEDSAVYFCARGLYRAMDYWGQGTSVTVSS VL: DIQMTQSPASQSASLGESVTITCLASQTIGTWLAWYQQKPGKSPQLLIYAAASLADGVPSRFSGGGSGTKFSFKISSLQAEDFVNYYCQQIYSTPYTFGGGTKLEIK",–,–,≥ 95
"antibody 5 (antibody, V domains shown, mouse IgG, kappa light chain; also called clone #5; purified antibody 5) VH: QVTLKESGPGILQPSQTLSLTCSFSGFSLSTFGMGVGWIRQPSGKGLEWLAHIWWDDEKYYNSALKSRLTISKATSKNQAFLKIANVDTADTATYYCARISNYGSNYWYFNVWGTGTTVTVSS VL: QVVLTQSPALMSASPGEKVTMTCSAGSSVSCMYWYQQKPGSSPRVLIYDTSNLASGVPARFTGSGSGTSYSLTISRMEAEDAASYYCQQWNSYPLTFGAGTKLELK",no binding (tested: 3 µg/ml),no binding (tested: 3 µg/ml),≥ 95
"antibody 44 (antibody, V domains shown, mouse IgG, kappa light chain; also called clone #44; purified antibody 44) VH: QVTLKESGPGILQPSQTLSLTCSFSGFSLSTFGMGVGWIRQPSEKGLEWLAHIWWDDDKYYNPALKSRLTISKDTSKNQIFLKITNVDTAETATYYCSRIGNYGSNYWYFDVWGTGTTVTVSS VL: QIVLTQSPAVMSASPGEKVTMTCTASSSVYYMYWYQQTPGSSPRLLIYDTSNLASGVPVRFSGSGSGTSYSLTISRMEAEDAATYYCQQWNTYPLTFGAGTKLELK",no binding (tested: 3 µg/ml),no binding (tested: 3 µg/ml),≥ 95
"antibody 42 (antibody, V domains shown, mouse IgG, kappa light chain; also called clone #42; purified antibody 42) VH: QVTLKESGPGILQPSQTLSLTCSLSGFSLSTFGRGVGWIRQPSGKGLEWLAHIWWDDEKYYNPALKSRLTISKDTSKNQVFLRIANVDTADTATYYCARIQNYGSNYWYFDVWGTGTTVTVSS VL: LIVLTQSPAIMSASPGEKVTMTCGATSRISYMFWYQQKPGSSPRVLIYDTSNLASGVPVRFSGSGSGTSYSLTISRVEAEDVATYYCQQWNSYPLTFGAGTKLELK",no binding (tested: 3 µg/ml),no binding (tested: 3 µg/ml),≥ 95
"antibody 43 (antibody, V domains shown, mouse IgG, kappa light chain; also called clone #43; purified antibody 43) VH: QVALKESGPGILQPSQTLSLTCSFSGFSLSTFGMGVGWIRQSSGKGLEWLANIWWDDDKYYNPALKSRLTISKDASKNQAFLKIANVDTADTATYYCARIGNYGSNYWYFDVWGTGTTVTVSS VL: QIVLTQSPAIMSASPGERVTMTCSANSRISYMYWYQQKPGSSPRLLIYDTSNLASGVPVRFSGSGSGTSYSLTISRMEAEDAATYNCQQWSSYPLTFGAGTKLELK",no binding (tested: 3 µg/ml),no binding (tested: 3 µg/ml),≥ 95
"antibody 22 (antibody, V domains shown, mouse IgG, kappa light chain; also called clone #22; purified antibody 22) VH: QVTLKESGPGILQPSQTLSLTCSFSGFSLSTFGMGVGWIRQPSGKGLEWLAHIWWDDEKYYNSALKSRLTISKATSKNQVFLKIANVDTADTATYYCARISNYGSNYWYFNVWGTGTTVTVSS VL: QVVLTQSPALMSASPGEKVTMTCSAGSSVSYMYWYQQKPGSSPRVLIYDTSNLASGVPARFTGSGSGTSYSLTISRMEAEDAATYYCQQWNSYPLTFGAGTKLELK",no binding (tested: 3 µg/ml),no binding (tested: 3 µg/ml),≥ 95
